In US20260035464A1 one finds koff, kon and Kd data, which are given here for one substance.

The target of test [1] is human BTLA extracellular domain with C-terminal 10xHis tag (human) (UniProt Q7Z6A9). The experiment in a line: BLI (Octet RED96), antibody on AHC biosensor, His-tag-huBTLA in solution.
The target is the same in test [2]. The experiment in a line: BLI (Octet RED96), antibody on AHC biosensor, His-tag-huBTLA in solution; column head prints nM, but Koff/Kon shows the values are in M.

Sequence of human BTLA extracellular domain with C-terminal 10xHis tag (human) (Q7Z6A9 other isoform, or with tags, fused parts or gaps): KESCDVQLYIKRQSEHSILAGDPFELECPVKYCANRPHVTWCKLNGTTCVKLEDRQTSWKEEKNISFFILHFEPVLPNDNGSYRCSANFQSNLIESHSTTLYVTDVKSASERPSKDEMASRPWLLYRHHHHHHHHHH

Icatolimab (antibody): in test [1], the koff amounted to 0.00124 s⁻¹ and the kon was 621000 M⁻¹ s⁻¹. In addition, the Kd in test [2] turned out to be 2.09 nM.
